Molecular target: T1, Human argininosuccinate synthase (endogenous, in human tissues and human cancer cell lines) (human, UniProt P00966 1-412)
T1 construct: Endogenous protein in formalin-fixed, paraffin-embedded human tissue and cell line sections, with cytoplasmic staining; also called ASS; ASS1
T1 sequence: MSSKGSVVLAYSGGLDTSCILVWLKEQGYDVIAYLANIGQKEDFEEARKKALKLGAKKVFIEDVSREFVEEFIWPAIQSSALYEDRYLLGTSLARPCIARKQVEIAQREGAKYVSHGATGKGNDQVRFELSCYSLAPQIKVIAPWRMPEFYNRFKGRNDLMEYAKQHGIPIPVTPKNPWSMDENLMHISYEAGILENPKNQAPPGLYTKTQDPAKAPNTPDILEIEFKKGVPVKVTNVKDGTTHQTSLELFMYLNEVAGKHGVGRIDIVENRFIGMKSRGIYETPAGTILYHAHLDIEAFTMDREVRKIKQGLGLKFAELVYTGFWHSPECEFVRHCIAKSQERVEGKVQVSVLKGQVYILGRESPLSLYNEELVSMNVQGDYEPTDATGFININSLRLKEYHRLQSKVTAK
Test: immunohistochemistry on formalin-fixed, paraffin-embedded clinical samples
Protocol: Formalin-fixed, paraffin-embedded specimens were sectioned at 4-5 μm and mounted on positively charged slides. Slides were air dried and then placed in a 60° C. oven for 60 minutes. Slides were stained using the Leica Bond III instrument. Paraffin was removed from the slides using the standard Leica Bond dewax protocol. The tissue was antigen retrieved with either Bond ER1 for 5 or Bond ER2 for 20 minutes.
Mouse anti-argininosuccinate synthase monoclonal antibody was applied to the slide at a concentration of 0.625 μg/mL and incubated for 15 min or 0.4 μg/mL and incubated for 30 minutes. The Leica Bond Polymer Refine Detection kit was used to visualize the staining—post primary for 8 minutes and polymer for 8 minutes. The slides were then treated with Peroxide Block for five minutes followed by Mixed DAB Refine for ten minutes. Stained sections were counterstained with hematoxylin for […] The slides were then dehydrated and cover-slipped.

binding result: binds
B1: Mouse anti-argininosuccinate synthase monoclonal antibody used for immunohistochemistry in Example 2 (antibody, V domains shown)
VH: QIQLVQSGPELKKPGETVKISCKTSGYTFTDYSIHWVKQAPGKGLTWMGWINTETGEPTYADDFKGRFALSLETSASTAYLQLKNLRNEDTATYFCGSSYSYWGQGTLVTVSS
VL: DVVMTQTPLSLPVSLGDQASISCRSSQSLENSNGKTYLNWFLQKPGQSPQLLIYRVSNRFSGVPDRFSGSGSGTEFTLKISRVEAEDLGVYFCLQVKHVPWTFGGGTKLEIK
